Target: MR1-restricted antigen synthesized by S. Typhimurium and highly abundant in that microbe peptide on MR1 (human)
Experiment: T cell clone or line
[1] = chains alpha TRAV1-2 TRAJ33 CDR3:beta TRBV3-1 TRBJ2-2 CDR3

B1: D0033A10 (peptide)
chain 1: CAVTDSNYQLI
chain 2: CASSSGLEVTGELF
With B1 the geometric MFI [1] was 2130.

B2: 427D8-2 (peptide)
chain 1: CAVMDSNYQLI
chain 2: CASSLLRQGTEKLF
In the case of B2, the geometric MFI (chains alpha TRAV1-2 TRAJ33 CDR3:beta TRBV5-1 TRBJ1-4 CDR3) is reported as 3440.

B3: 450A9 (peptide)
chain 1: CAVRDSNYQLI
chain 2: CSAREVEGTYEQY
With B3 the geometric MFI (chains alpha TRAV1-2 TRAJ33 CDR3:beta TRBV20-1 TRBJ2-7 CDR3) was 2030.

B4: 450B9 (peptide)
chain 1: CAVMDSNYQLI
chain 2: CASTPSGEFSEAF
Binder B4 has a geometric MFI (chains alpha TRAV1-2 TRAJ33 CDR3:beta TRBV6-1 TRBJ1-1 CDR3) of 2520.

B5: 571F3-2 (peptide)
chain 1: CAVRDSNYQLI
chain 2: CASSEASGGTDTQY
For B5, the geometric MFI (chains alpha TRAV1-2 TRAJ33 CDR3:beta TRBV6-4 TRBJ2-3 CDR3) was 2760.

B6: D0033A2 (peptide)
chain 1: CAVTDSNYQLI
chain 2: CASSQAETELNTGELF
B6 showed a geometric MFI [1] of 2480.

B7: D0033A6 (peptide)
chain 1: CAVVDSNYQLI
chain 2: CASSHSSGTGGNEQF
B7 showed a geometric MFI (chains alpha TRAV1-2 TRAJ33 CDR3:beta TRBV4-2 TRBJ2-1 CDR3) of 2620.

B8: 403A9 (peptide)
chain 1: CAVVDSNYQLI
chain 2: CSARDGGEAYNEQF
For B8, the geometric MFI (chains alpha TRAV1-2 TRAJ33 CDR3:beta TRBV20-1 TRBJ2-1 CDR3) was 1600.

Source: paper PMC7541710
